# Source: US12686712B2, “Antibody, related use, pharmaceutical composition including method for diagnosing fungal infections, fungal infection diagnosis kit and method for treating fungal infections” (priority 2020, dated 2026)
# B1: HC6/DD11: murine IgM monoclonal antibody against chitooligomers (chitotriose); VH SEQ ID NO: 15, VL SEQ ID NO: 16 (antibody, listed as Mus musculus, V domains shown)
# VH: STGQVKLEESGGGLVQPGGSRKLSCAASGFTFSDYGMAWVRQAPGKGPEWVAFISNLAYSIYYADTVTGRFTISRENAKNTLYLEMSSLRSEDTAMYYCARDYYGSSYWYFDVWGAGTTVTAPC
# VL: ATNSCISRGEVTITCSASSSVSYMHWFQQKPGTSPKLWIYSTSNLASGVPARFSGSGSGTSYSLTISRMEAEDAATYYCQQRSSYPLTFGAGTKLELKRADAAPTVSLET
# Columns and labels:
# [1] = system: C. albicans; experiment: Dot Blot against intact cells using PL; type: binding, Candida albicans; conditions: AcM 25 μg/ml; cells in 5 μg/ml PL diluted in base 10 from 10^7 cell/ml; 3 independent experiments
# Protocol: (§1) C. neoformans (H99) and Candida albicans in 10^7 cell/ml density until 10 cells/ml were suspended in poly-L-Lysine solution (5 μg/ml in PBS) and 10 μl were loaded in nitrocellulose membranes. Then, the same steps for ELISA were followed, however, 25 μg/ml concentration of AcM anti-chitooligomers. Membrane was cut and deposited in 96-well plates, to which 50 μl TMB was added and incubated for 30 minutes at 37° C. Volume was removed and transferred to a new plate, to which stop reaction was added with HCl 1 N and read with spectrophotometer at 450 nm.
# (§2) The principle used in this trial was the same of ELISA and was based on the load presented by fungi. As nitrocellulose membrane has negative load, PL was used to check positive load to fungus, and consequently have bond to membrane.
# (§3) As provided in FIG. 11, it was initially diluted in 5 μg/ml of PL at 10^7 cell/ml concentration and diluted in base 10. In this trial, it was evidenced that AcM HC6/DD11 was capable to bond to C. albicans up to 10^4 cell/ml order, which counters C. neoformans, that was identified to 10^6 cell/ml order. 3 independent experiments were performed to each trial. Example 16.7—Immunofluorescence
# [2] = system: C. neoformans H99; experiment: Biofilm development, XTT reduction trial; type: cell-based, Cryptococcus neoformans; conditions: AcM 25 μg/ml, 48 hours at 37° C., vs fungus without treatment, p<0.05
# Protocol: (§4) C. neoformans (H99 and Cap67) and Candida albicans were cultivated in Sabouraud media for 24 hours at 30° C. Cellular suspensions were centrifuged for 5 minutes at 3000 g, washed 3 times in PBC and suspended in minimum media (20 mg/ml thiamin, 30 mm glucose, 26 mM glycine, 20 mM MgSO4, and 58.8 mM KH2PO4). Then, they were added to 96-well plates (100 μl/well—1×10^6 células/ml) and cultivated for 48 hours at 37° C. at presence of AcM (HC6/DD11 and AF1/CC5) and AcM anti-GXM 18B7 (only to H99) at 25 μg/ml concentration, keeping under agitation for 30 minutes, for AcM total homogenization with fungi. As control, drug AmB was used at 1 μg/ml concentration.
# (§5) Two analysis systems were performed: in the first, cells were washed, so that non-adhering cells were removed and only cells bonded to biofilm under development remained; in the second system, cells were not washed and all cells adhered or not to substrate were quantified.
# (§6) Viable cell metabolic activity in both trials was assessed by the method based on decrease of XTT (2-methoxy-4-nitro-5-sulfophenyl)-5-[(phenylamino) carbonyl]-2H-tetrazolium hydroxide) in spectrophotometer at 492 nm of wavelength.
# (§7) AcMs were tested (25 μg/ml) against three fungus species (C. albicans, C. neoformans—H99—and acapsular mutant of C. neoformans—Cap67), with control by AcM anti-GXM 18B7 (25 μg/ml) only to H99. In the first assay (FIGS. 14A and B), cellular suspensions were washed to remove non-adhering cells to substrate. […] In second assay (FIGS. 14C and D), cellular suspensions were not washed, and again AcM inhibited biofilm development (p<0.05) compared to cell not treated with antibodies. In both assays, cell growth was observed.
# AcMs were compared to AcM anti-GXM 18B7 concerning biofilm development inhibition.
# [3] = system: acapsular mutant of C. neoformans Cap67; experiment: Biofilm development, XTT reduction trial; type: cell-based, Cryptococcus neoformans; conditions: AcM 25 μg/ml, 48 hours at 37° C., vs fungus without treatment, p<0.05
# Protocol: as §4, §5, §6, §7
# [4] = system: C. neoformans; experiment: Melanization trial (L-DOPA); type: cell-based, Cryptococcus neoformans; conditions: concentrations lower than 6.2 μg/ml; p>0.05
# Protocol: C. neoformans cultivation was performed as paragraph and cellular suspension (1×10^6 cells/ml) was cultivated for 72 hours in minimum media supplemented with 1 mM of L-DOPA in 96-well plate of U-shape bottom. Antibodies HC6/DD11 and AF1/CC5 were added to minimum media within 25 to 0.05 μg/ml concentration range. The plate was centrifuged and pigment development quantification was defined densitometrically upon image scanning by iBright FL1000 Invitrogen equipment.
# AcM HC6/DD11 e AF1/CC5 established concentrations were 0.2 to 25 μg/ml. L-DOPA was used with substrate to melanization.
# Pigmentation in C. neoformans was assessed through brown to black sedimentation observation in 96-well plate bottom. To document pigmentation or inhibition, plates were photographed over white surfaces (clear bottom), to enable differentiation between pigmented and non-pigmented populations. It shall be noted that every AcM dose presents fungal growth, however with negative pigmentation or partial inhibition.
# [5] = system: C. neoformans (H99); experiment: Dot Blot against intact cells using PL; type: binding, Cryptococcus neoformans; conditions: AcM 25 μg/ml; cells in 5 μg/ml PL diluted in base 10 from 10^7 cell/ml; 3 independent experiments
# Protocol: as §1, §2, §3
molecule,measurement,setting,value
B1,cell density down to which AcM was capable to bond (Dot Blot),[1],10^4 cell/ml
same,biofilm development (XTT reduction),[2]; non-washed cells,reduced biofilm development significantly
same,biofilm development (XTT reduction),[2]; washed cells,reduced biofilm development significantly
same,biofilm development (XTT reduction),[3]; non-washed cells,reduced biofilm development significantly
same,biofilm development (XTT reduction),[3]; washed cells,reduced biofilm development significantly
same,melanization in lower concentrations,[4],not significant inhibition
same,cell density down to which fungus was identified (Dot Blot),[5],10^6 cell/ml
